Data on one molecule can be found in US20220135672A1 (Hoffmann-La Roche, published 2022).

The target in assay [1] is T1, rabbit-CD19-GPI anchor-FLAG-tag fusion polypeptide (on transfected CHO-S / HEK293F cells) (rabbit; human).
T1 sequence: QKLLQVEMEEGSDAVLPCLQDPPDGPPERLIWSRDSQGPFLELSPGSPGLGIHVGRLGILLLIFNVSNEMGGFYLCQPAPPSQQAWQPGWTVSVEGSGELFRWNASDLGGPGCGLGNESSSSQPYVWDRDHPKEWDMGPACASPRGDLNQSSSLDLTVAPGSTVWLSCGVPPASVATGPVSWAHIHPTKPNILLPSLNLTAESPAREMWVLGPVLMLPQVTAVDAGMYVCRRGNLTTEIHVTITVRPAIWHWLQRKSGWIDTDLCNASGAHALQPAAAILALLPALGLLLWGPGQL
The experiment in a line: FACS, HEK293F transfected with CD19 expression plasmid, detection with anti-mIgG-APC.

Assay [2] has as its target T2, rabbit CD19 (native, on the surface of rabbit B-cells) (rabbit).
T2 construct: Natural CD19 on rabbit PBMC / B-cells; also called rbCD19; native rabbit CD19
T2 chain: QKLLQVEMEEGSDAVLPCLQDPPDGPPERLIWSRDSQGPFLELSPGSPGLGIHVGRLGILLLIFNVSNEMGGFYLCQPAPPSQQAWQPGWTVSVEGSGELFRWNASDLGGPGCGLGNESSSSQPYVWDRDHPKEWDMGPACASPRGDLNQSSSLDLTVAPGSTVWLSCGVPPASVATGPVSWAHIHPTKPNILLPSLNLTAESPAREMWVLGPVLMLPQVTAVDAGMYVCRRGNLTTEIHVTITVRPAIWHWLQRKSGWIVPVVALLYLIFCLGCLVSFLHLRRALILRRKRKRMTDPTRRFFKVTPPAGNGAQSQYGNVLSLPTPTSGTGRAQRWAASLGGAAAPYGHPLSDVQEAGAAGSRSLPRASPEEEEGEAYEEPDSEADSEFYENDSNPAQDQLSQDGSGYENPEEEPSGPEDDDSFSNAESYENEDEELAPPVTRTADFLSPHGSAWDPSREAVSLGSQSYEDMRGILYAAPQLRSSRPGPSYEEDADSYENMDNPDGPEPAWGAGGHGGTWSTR
Briefly: FACS, rabbit PBMC. On the procedure: FACS analysis was applied for screening of hybridomas and to identify those hybridomas that secrete antibodies against rabbit CD19. All IgG-producing hybridomas were screened by FACS analysis of rabbit peripheral blood mononuclear cells (PBMCs) double stained with a rabbit IgM binding antibody for B-cell identification.
Freshly isolated rabbit (PBMCs) were incubated with FITC labeled anti-rabbit IgM antibody (Southern Biotech) and IgG-positive hybridoma supernatants on ice. After 45 min. incubation the PBMCs were washed once with ice cold PBS and resuspended in an PE-labeled anti-mouse IgG antibody (Invitrogen) binding the murine IgG of the hybridoma supernatant. After another 45 min. incubation on ice the cells were washed again once with ice cold PBS. Finally, the PBMCs were resuspended in ice cold PBS and immediately subjected to the FACS analyses. DAPI-HCl in a concentration of 2 μg/ml (Cayman) was added prior to the FACS analyses to discriminate between dead and live cells. A Becton Dickinson FACS Canto II device equipped with a computer and the FACSDiva software (BD Biosciences) were used for the analysis.

The target of assay [3] is T1, rabbit-CD19-GPI anchor-FLAG-tag fusion polypeptide (on transfected CHO-S / HEK293F cells) (rabbit; human). Briefly: FACS, CHO-S transfected with CD19 expression plasmid, detection with anti-mIgG-APC.

B1: antibody 1H2 (mouse monoclonal anti-rabbit CD19 antibody) (antibody, mouse IgG2a, kappa, V domains shown)
VH: QVQLQQSGPEVVKPGASVRMSCKASGYIFTNHYIHWMKQRPGQGLEWVGCIYPGNVNSNYNEKFKGKATLTADKSSSTAYLQLSSLTSEDSAVYFCARGGYYGSSYSWFAYWGQGTLVIVSA
VL: DIVMTQSPATLSVTPGDRVSLSCRASQSISDFLHWYQQSSHESPRLLIKYASQSISGIPSRFSGSGSGSDFTLTINSVEPEDVGVYYCQNGHSFPYTFGGGTNLEIKR
notes: Mouse IgG from hybridoma; the chains are built here from variable domain plus constant region so that no leader is included; Tested as hybridoma supernatant, and later purified and labelled with Alexa 647 or biotin; also called clone 1H2; anti-CD19 A647
Turning to B1, in assay [1], the stained cells, absolute [n] was 7290 n and the stained cells, relative to total number [%] came out at 35.9%. Moreover, in assay [2], the “Ratio Q2/IgM (%)” value worked out at 93.2%. In assay [3], the stained cells, absolute [n] worked out at 975 n and the stained cells, relative to total number [%] was found to be 4.6%.
